Legend:
[1] = tested on: Nc1ncnc2c1ncn2[C@H]1C[C@H](O)[C@@H](COP(=O)(O)OP(=O)(O)OP(=O)(O)O)O1; test: purified protein, by the assay type; conditions: other: incorporation assay, Therminator DNA polymerase; averaged from three trials
[2] = tested on: Nc1nc2c(ncn2[C@H]2C[C@H](O)[C@@H](COP(=O)(O)OP(=O)(O)OP(=O)(O)O)O2)c(=O)[nH]1; test: purified protein, by the assay type; conditions: other: incorporation assay, Therminator DNA polymerase; averaged from three trials
[3] = tested on: Nc1ccn([C@H]2C[C@H](O)[C@@H](COP(=O)(O)OP(=O)(O)OP(=O)(O)O)O2)c(=O)n1; test: purified protein, by the assay type; conditions: other: incorporation assay, Therminator DNA polymerase; averaged from three trials
[4] = molecular target: T1, Therminator™ DNA polymerase (Thermococcus sp., UniProt Q56366, A485L/D141A/E143A); assay type: biochemical, Thermococcus species 9° N; conditions: incorporation assay, averaged from three trials
T1 construct: purchased New England BioLabs
T1 sequence (Q56366 whole entry D141A/E143A/A485L): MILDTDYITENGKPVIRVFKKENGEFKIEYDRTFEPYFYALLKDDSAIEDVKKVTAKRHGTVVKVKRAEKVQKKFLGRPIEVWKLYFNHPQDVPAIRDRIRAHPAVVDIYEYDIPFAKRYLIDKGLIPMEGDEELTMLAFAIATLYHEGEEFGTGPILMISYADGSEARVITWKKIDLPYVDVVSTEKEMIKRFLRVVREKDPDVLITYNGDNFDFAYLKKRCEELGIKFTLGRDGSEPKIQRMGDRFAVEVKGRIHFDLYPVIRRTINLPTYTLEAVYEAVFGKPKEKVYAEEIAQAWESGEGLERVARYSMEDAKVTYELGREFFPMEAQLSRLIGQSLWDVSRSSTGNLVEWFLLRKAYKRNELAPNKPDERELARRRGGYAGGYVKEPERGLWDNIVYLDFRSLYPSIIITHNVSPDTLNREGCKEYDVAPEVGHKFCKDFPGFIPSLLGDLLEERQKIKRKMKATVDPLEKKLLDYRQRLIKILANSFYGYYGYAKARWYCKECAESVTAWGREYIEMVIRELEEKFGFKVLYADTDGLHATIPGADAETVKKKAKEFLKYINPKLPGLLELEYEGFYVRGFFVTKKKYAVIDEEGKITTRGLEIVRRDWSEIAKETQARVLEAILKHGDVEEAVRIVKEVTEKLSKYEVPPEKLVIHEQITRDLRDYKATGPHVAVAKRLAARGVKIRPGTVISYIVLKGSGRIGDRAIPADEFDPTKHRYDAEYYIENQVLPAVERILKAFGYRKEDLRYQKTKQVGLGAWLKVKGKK
Excerpt: Each nucleotide included a fluorescent moiety constructed on a Cy-5 scaffold. […] In the case of the labeled dUTP analog, the comparison was against dTTP.

Therminator™ DNA polymerase (Thermococcus sp. 9oN-7; A485L/D141A/E143A)
Km [1]: 0.05 µM
Km [2]: 0.23 µM
Km [3]: 0.82 µM

Cc1cn([C@H]2C[C@H](O)[C@@H](COP(=O)(O)OP(=O)(O)OP(=O)(O)O)O2)c(=O)[nH]c1=O [dTTP, 2′-deoxythymidine-5′-triphosphate]
Km [4]: 0.92 µM
